Laboratory results from patent publication US20010029034A1.

Legend:
Trypsin (Sigma) = assay: cell-based or functional assay
[1] = tested on: His-tagged Cripto (a TGF-a family member)
[2] = tested on: T1, first Kunitz-type domain of the TFPI-3 protein (TFPI-3-1), His-tagged, expressed in E. coli
T1 sequence: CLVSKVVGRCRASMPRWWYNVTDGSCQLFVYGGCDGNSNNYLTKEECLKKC

Substance | trypsin activity inhibited, 5.00 dose of TFPI-3-1 (Trypsin (Sigma)) | trypsin activity left against buffer only samples, 10 of TFPI-3-1, duplicate samples (Trypsin (Sigma)) | trypsin activity left against the buffer-only control, 10.00 dose of TFPI-3-1 (Trypsin (Sigma)) | trypsin activity on TAME substrate, same concentrations of Cripto as control [1] | trypsin activity on TAME substrate (absorbance at 247 nm), 1.25 dose of TFPI-3-1 [2] | trypsin activity on TAME substrate (absorbance at 247 nm), 2.50 dose of TFPI-3-1 [2]
first Kunitz-type domain of the TFPI-3 protein (TFPI-3-1), His-tagged, expressed in E. coli (from UniProt O43291 38-88) | 60% | 7% | 13% | – | – | –
Trypsin (Sigma) | – | – | – | no trypsin inhibiting activity could be observed | did not appear to inhibit trypsin activity at 1.25 and 2.50 mg doses | did not appear to inhibit trypsin activity at 1.25 and 2.50 mg doses
